This is an account of results in publication PMC7680425 (Cell chemical biology, 2020).

* marks the point of attachment. CONH‑phenylbutyl = C-terminal alpha-ketoamide warhead with phenylbutyl on the amide nitrogen, O=C(NCCCCc1ccccc1)*; B(OH)2 = C-terminal boronate warhead, OB(O)*

In assay [1] the target is T1, E. coli GlpG consisting of residues 87-276 (ΔN-GlpG) (E. coli, UniProt P09391 87-276).
T1 sequence (looked up): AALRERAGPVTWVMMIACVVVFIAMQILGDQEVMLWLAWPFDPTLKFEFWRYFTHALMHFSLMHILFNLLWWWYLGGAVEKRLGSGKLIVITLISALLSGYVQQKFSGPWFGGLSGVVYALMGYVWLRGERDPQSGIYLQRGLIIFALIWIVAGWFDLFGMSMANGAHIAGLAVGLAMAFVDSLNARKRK
As to the kind of experiment: crystal structure.

Assay [2] has as its target P. falciparum rhomboid protease PfROM4 (HA-tagged) (P. falciparum). As to the kind of experiment: cell-based or functional assay.

B1: rhomboid-inhibiting ketoamide (RiKa), Ac-RVWHA-CONH-phenylbutyl (peptide)
peptide: Ac-RVWHA-{CONH‑phenylbutyl}
For the molecule B1, the binding result in assay [1] is reported as “binds”. For the same molecule, in assay [2], the “EC50 of inhibition of EBA175 cleavage by PfROM4 in HEK293T cells” value worked out at 55 nM.

B2: rhomboid-inhibiting boronate (RiBn), Ac-KRFRSMQYSA-B(OH)2 (peptide)
peptide: Ac-KRFRSMQYSA-{B(OH)2}
SMILES: CSCC[C@H](NC(=O)[C@H](CO)NC(=O)[C@H](CCCNC(=N)N)NC(=O)[C@H](Cc1ccccc1)NC(=O)[C@H](CCCNC(=N)N)NC(=O)[C@H](CCCCN)NC(C)=O)C(=O)N[C@@H](CCC(N)=O)C(=O)N[C@@H](Cc1ccc(O)cc1)C(=O)N[C@@H](CO)C(=O)N[C@@H](C)C(=O)B(O)O
With B2, the binding result in assay [1] was “binds”.
